Kd, koff and kon data for one molecule are collected here from patent publication US20130177572A1.

In general, Kd refers to a measure of binding affinity in units of concentration. Low values mean tighter binding, high ones weaker binding. Broadly, the koff is the first-order rate constant of dissociation. One may read the kon as the rate constant with which the complex forms. A higher kon goes with fast association.

The target in test [1] is human PDGFR-hIgG1-Fc chimeric fusion protein (human) (UniProt P09619). Kind of test: SPR (Biacore T100), PDGFR-Fc captured by anti-hIgG1 Fc, 1:1 model.
In another test the target is human PDGFRβ (human) (UniProt P09619). Kind of test: solution equilibrium binding: 35S-Met labelled in vitro translated protein, human PDGFRβ titrated (0 to 20 nM), capture on protein A beads, scintillation counts.
Sequence of human PDGFRβ (human) (P09619 33-530 limits assumed): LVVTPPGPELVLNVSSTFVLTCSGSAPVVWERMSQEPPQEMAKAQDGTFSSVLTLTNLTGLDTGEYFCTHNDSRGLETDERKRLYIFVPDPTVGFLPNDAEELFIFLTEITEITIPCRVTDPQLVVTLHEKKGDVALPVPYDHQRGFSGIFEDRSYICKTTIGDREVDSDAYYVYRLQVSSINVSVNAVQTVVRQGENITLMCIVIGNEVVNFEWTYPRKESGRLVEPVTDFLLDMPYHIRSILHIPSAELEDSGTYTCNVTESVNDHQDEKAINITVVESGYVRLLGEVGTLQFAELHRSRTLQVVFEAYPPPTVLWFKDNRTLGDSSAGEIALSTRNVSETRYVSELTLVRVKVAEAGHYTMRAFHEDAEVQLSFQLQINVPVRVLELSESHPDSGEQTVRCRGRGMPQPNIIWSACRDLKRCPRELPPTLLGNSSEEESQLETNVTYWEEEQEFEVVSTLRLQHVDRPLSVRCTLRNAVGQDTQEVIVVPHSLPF

Sequence of human PDGFR-hIgG1-Fc chimeric fusion protein (human) (P09619 33-530 limits assumed, stated change not applied): as the sequence (P09619 33-530 limits assumed) above

B1: XB2202/A4 scFv (scFv, part only; not given: Linker, domain order and tag, V domains shown, not shown: another chain or arm of the molecule; small tags and cut ends)
VH: QVQLVQSGAEVKKPGSSVRVSCKASGGTFSRHAISWVRQAPGQGLEWIGGILPILKTPNYAQRFQGRVTINADESTSTVYMEMSSLRSEDTAVYYCATHGGDRSYWGQGTLVTVSS
VL: DVVMTQSPSSLSASVGDRVTITCQASQDISNWLNWYQQKPGKAPKLLIYEASNLETGVPSRFSGSGSGTDFTFTISSLQPEDIATYYCQQYNNVLRTFGQGTKVEIK
In test [1], B1 came in with a Kd of 2.18 nM, a koff of 0.00154 s⁻¹ and an on-rate (kon) of 706000 M⁻¹ s⁻¹. The molecule also returned a dissociation constant (Kd) with human PDGFRβ (human) of 0.03 nM.
